In one test the target is His-DDB1 (recombinant) (human, UniProt Q16531 1-1140). The test can be described thus: fluorescence polarisation.
Test [1] has as its target CRL4A complex (CUL4A, DDB1, RBX1) (human | , UniProt Q13619 1-759; Q16531 1-1140; P62877 1-108). The test can be described thus: fluorescence polarisation.

Chain of CRL4A complex (CUL4A, DDB1, RBX1) (Q13619 whole entry, chain 1 of 3): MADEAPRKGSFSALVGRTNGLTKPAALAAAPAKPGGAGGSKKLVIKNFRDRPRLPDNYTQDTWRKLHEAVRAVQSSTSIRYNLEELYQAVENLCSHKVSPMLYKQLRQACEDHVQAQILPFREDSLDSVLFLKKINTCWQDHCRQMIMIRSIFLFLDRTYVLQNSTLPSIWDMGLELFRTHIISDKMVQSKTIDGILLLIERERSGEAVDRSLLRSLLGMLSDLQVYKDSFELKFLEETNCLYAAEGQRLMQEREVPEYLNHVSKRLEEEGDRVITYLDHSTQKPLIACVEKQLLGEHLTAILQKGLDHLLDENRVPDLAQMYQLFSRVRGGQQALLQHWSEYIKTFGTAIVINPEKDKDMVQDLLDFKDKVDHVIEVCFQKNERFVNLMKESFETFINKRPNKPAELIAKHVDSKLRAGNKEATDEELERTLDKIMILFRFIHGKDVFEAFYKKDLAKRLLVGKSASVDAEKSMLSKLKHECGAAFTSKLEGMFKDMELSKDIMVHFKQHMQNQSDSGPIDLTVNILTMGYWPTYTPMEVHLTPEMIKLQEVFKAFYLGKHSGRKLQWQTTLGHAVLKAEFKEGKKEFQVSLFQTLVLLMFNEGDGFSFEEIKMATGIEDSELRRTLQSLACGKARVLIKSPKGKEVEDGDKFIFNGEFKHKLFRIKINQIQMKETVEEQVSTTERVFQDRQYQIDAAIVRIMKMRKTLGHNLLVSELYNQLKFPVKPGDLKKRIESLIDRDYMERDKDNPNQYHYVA
Chain of CRL4A complex (CUL4A, DDB1, RBX1) (Q16531 whole entry, chain 2 of 3): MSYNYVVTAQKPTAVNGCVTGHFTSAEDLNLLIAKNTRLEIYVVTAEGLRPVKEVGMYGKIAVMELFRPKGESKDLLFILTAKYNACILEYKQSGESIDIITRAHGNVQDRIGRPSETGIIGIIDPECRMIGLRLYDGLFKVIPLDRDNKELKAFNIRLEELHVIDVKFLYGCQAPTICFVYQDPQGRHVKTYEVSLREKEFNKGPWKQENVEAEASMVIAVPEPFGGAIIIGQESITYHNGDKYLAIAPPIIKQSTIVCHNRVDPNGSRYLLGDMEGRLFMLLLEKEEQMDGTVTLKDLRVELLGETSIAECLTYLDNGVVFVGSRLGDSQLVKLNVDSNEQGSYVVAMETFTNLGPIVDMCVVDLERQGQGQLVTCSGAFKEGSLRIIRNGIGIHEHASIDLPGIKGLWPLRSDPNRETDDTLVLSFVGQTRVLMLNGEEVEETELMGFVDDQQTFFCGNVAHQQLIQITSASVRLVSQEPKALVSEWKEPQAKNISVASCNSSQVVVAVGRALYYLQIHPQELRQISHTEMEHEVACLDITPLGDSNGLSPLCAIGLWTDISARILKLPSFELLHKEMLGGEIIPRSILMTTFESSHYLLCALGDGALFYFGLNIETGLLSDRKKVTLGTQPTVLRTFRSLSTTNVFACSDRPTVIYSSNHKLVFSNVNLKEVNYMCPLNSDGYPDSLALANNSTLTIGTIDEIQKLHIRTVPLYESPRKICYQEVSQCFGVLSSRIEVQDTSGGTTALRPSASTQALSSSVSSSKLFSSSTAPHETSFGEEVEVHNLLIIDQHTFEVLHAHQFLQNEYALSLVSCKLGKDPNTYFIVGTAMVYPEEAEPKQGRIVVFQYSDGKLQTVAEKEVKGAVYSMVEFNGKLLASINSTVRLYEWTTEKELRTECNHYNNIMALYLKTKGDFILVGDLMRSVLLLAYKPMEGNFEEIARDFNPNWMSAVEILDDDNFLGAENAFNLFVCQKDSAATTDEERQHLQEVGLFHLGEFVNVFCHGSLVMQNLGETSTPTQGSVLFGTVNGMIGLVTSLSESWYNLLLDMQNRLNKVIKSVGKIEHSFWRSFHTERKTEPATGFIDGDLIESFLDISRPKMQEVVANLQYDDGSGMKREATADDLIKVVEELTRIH
Chain of CRL4A complex (CUL4A, DDB1, RBX1) (P62877 whole entry, chain 3 of 3): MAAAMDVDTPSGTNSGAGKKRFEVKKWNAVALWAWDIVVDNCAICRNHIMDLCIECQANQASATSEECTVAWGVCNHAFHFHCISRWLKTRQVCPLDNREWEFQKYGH
Chain of His-DDB1 (recombinant) (Q16531 whole entry): as the sequence (Q16531 whole entry, chain 2 of 3) above

B1: Alexa-labeled WDR1 (biotinylated StrepII-Avi-WDR1 with Alexa488-coupled streptavidin) (natural protein, human, UniProt O75083 1-606, looked up)
chain: MPYEIKKVFASLPQVERGVSKIIGGDPKGNNFLYTNGKCVILRNIDNPALADIYTEHAHQVVVAKYAPSGFYIASGDVSGKLRIWDTTQKEHLLKYEYQPFAGKIKDIAWTEDSKRIAVVGEGREKFGAVFLWDSGSSVGEITGHNKVINSVDIKQSRPYRLATGSDDNCAAFFEGPPFKFKFTIGDHSRFVNCVRFSPDGNRFATASADGQIYIYDGKTGEKVCALGGSKAHDGGIYAISWSPDSTHLLSASGDKTSKIWDVSVNSVVSTFPMGSTVLDQQLGCLWQKDHLLSVSLSGYINYLDRNNPSKPLHVIKGHSKSIQCLTVHKNGGKSYIYSGSHDGHINYWDSETGENDSFAGKGHTNQVSRMTVDESGQLISCSMDDTVRYTSLMLRDYSGQGVVKLDVQPKCVAVGPGGYAVVVCIGQIVLLKDQRKCFSIDNPGYEPEVVAVHPGGDTVAIGGVDGNVRLYSILGTTLKDEGKLLEAKGPVTDVAYSHDGAFLAVCDASKVVTVFSVADGYSENNVFYGHHAKIVCLAWSPDNEHFASGGMDMMVYVWTLSDPETRVKIQDAHRLHHVSSLAWLDEHTLVTTSHDASVKEWTITY
modifications: biotin on the Avi tag
For the molecule B1, the Kd was around 5 µM with His-DDB1 (recombinant) and around 13 µM in test [1].

B2: Alexa-labeled LIS1 (biotinylated StrepII-Avi-LIS1 with Alexa488-coupled streptavidin) (natural protein, human, UniProt P43034 1-410, looked up)
chain: MVLSQRQRDELNRAIADYLRSNGYEEAYSVFKKEAELDVNEELDKKYAGLLEKKWTSVIRLQKKVMELESKLNEAKEEFTSGGPLGQKRDPKEWIPRPPEKYALSGHRSPVTRVIFHPVFSVMVSASEDATIKVWDYETGDFERTLKGHTDSVQDISFDHSGKLLASCSADMTIKLWDFQGFECIRTMHGHDHNVSSVAIMPNGDHIVSASRDKTIKMWEVQTGYCVKTFTGHREWVRMVRPNQDGTLIASCSNDQTVRVWVVATKECKAELREHEHVVECISWAPESSYSSISEATGSETKKSGKPGPFLLSGSRDKTIKMWDVSTGMCLMTLVGHDNWVRGVLFHSGGKFILSCADDKTLRVWDYKNKRCMKTLNAHEHFVTSLDFHKTAPYVVTGSVDQTVKVWECR
modifications: biotin on the Avi tag
In the case of B2, the Kd with His-DDB1 (recombinant) is around 5 µM; in test [1], around 13 µM.

In general, Kd refers to the concentration at which binding is half-saturated.

The record behind these values is publication doi:10.1101/2022.10.14.512051 (bioRxiv, 2022).
